Assay results reported in patent US20250011427A1 (CONCEPT TO MEDICINE BIOTECH, published 2025).

What was measured:
[1] = target: human CD3 on cells (human PBMC; Jurkat-CD3-NFAT and TCR/CD3 Effector reporter cells) (human) (UniProt P07766); test: cell-based or functional assay
[2] = target: T1, human CD3 on cells (human PBMC; Jurkat-CD3-NFAT and TCR/CD3 Effector reporter cells) (human, UniProt P07766 23-207; P04234 22-171; P09693 23-182); test: FACS on human PBMC, PE goat anti-human IgG Fc secondary antibody, geometric mean fluorescence
T1 construct: whole, on cells; The CD3 complex as carried by T cells; also called huPBMC; CD3 receptor
T1 sequence (P07766 23-207, chain 1 of 3): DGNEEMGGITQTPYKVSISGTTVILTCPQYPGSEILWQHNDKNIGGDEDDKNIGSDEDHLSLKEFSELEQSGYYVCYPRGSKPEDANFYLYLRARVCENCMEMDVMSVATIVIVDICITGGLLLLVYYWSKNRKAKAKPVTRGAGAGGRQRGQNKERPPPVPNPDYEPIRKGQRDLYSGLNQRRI
T1 sequence (P04234 22-171, chain 2 of 3): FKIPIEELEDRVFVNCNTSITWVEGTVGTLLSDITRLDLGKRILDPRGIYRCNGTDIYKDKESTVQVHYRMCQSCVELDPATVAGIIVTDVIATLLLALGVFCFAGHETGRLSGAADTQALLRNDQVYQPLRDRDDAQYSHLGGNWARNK
T1 sequence (P09693 23-182, chain 3 of 3): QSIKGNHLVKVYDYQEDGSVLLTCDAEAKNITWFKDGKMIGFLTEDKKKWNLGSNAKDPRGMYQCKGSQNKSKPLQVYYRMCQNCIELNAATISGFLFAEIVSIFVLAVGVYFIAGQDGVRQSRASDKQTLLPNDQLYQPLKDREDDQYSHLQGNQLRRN
Protocol: FACS was used to evaluate the binding activity of 153A6B1, 155A9B1, and 192A7B9 chimeric mAbs on human or cynomolgus PBMC. SP34 (Biointron, B6762) and OKT3 (Biointron, B6928) served as the benchmark controls.
Briefly, cynoPBMCs were first incubated with 3-fold serially diluted 153A6B1, 155A9B1, and 192A7B9 chimeric mAbs starting at 10 nM at 4° C. for 30 mins. While huPBMCs were incubated with 4-fold serially diluted 153A6B1, 155A9B1, and 192A7B9 chimeric mAbs starting at 10 nM at 4° C. for 30 mins. After washing by PBS, PE Goat anti-Human IgG Fc Secondary Antibody (eBioscience™, Invitrogen) was added to each well and incubated at 4° C. for 30 mins. Samples were washed twice with FACS buffer. The mean florescence intensity (MFI) of PE was evaluated by MACSQuant Analyzer 16.

human CD3 on cells (human PBMC; Jurkat-CD3-NFAT and TCR/CD3 Effector reporter cells) (human), sequence (P07766 23-207, chain 1 of 3): as the sequence (P07766 23-207, chain 1 of 3) above
human CD3 on cells (human PBMC; Jurkat-CD3-NFAT and TCR/CD3 Effector reporter cells) (human), sequence (P04234 22-171, chain 2 of 3, further chain): as the sequence (P04234 22-171, chain 2 of 3) above
human CD3 on cells (human PBMC; Jurkat-CD3-NFAT and TCR/CD3 Effector reporter cells) (human), sequence (P09693 23-182, chain 3 of 3, further chain): as the sequence (P09693 23-182, chain 3 of 3) above

Binder	% of SP34 [1] [%]	EC50 (read off the curve) [2] [nM]
Hu155A9B1-1 (antibody, V domains shown) VH: EVQLQESGPGLVKPSETLSLTCTVSGGSISSYNVHWIRQPPGKGLEWIGRVRYNGDTSYNSALKSRVTISVDTSKNQFSLKLSSVTAADTAVYYCARGPYGGSSEPLFDYWGQGTMVTVSS VL: DIQMTQSPSSLSASVGDRVTITCKASQNINKYLNWYQQKPGKAPRLLIYTTNNLQTGVPSRFSGSGSGTDFTLTISSLQPEDFATYYCLQHNSGYTFGQGTKLEIK	14.2	
Hu155A9B1-13 (antibody, V domains shown) VH: EVQLQESGPGLVKPSETLSLTCTVSGGSISSYNVHWIRQPPGKGLEWIGRVRYNGDTSYNSALKSRVTISVDTSKNQFSLKLSSVTAADTAVYYCARGPYGGSSEPLFDYWGQGTMVTVSS VL: DIQMTQSPSSLSASVGDRVTITCKASQNINKYLNWFQQKPGKAPRLLIYTTNNLQTGIPSRFSGSGSGTDFTLTISSLQPEDFATYFCLQHNSGYTFGQGTKLEIK	18.4	
SP34 monoclonal antibody (antibody, human IgG1, lambda, N297A, V domains shown, Benchmark, bought (Biointron, B6762)) VH: EVQLVESGGGLVQPKGSLKLSCAASGFTFNTYAMNWVRQAPGKGLEWVARIRSKYNNYATYYADSVKDRFTISRDDSQSILYLQMNNLKTEDTAMYYCVRHGNFGNSYVSWFAYWGQGTLVTVSA VL: QAVVTQESALTTSPGETVTLTCRSSTGAVTTSNYANWVQEKPDHLFTGLIGGTNKRAPGVPARFSGSLIGDKAALTITGAQTEDEAIYFCALWYSNLWVFGGGTKLTVLG		~0.3
